# Measurements reported in article doi:10.1101/2021.04.22.440356 (bioRxiv, 2021).
# T1: yeast ubiquitin hydrolase 1 (YUH1) (S. cerevisiae, UniProt P35127 1-236)
# T1 sequence (looked up): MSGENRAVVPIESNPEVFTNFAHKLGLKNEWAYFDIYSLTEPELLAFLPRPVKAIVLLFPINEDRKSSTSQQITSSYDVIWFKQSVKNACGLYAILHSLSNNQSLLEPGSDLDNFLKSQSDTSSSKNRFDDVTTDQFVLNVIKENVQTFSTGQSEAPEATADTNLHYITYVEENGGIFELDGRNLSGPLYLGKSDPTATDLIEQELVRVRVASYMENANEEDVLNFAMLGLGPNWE
# Target: T1, yeast ubiquitin hydrolase 1 (YUH1)
# Experiment: NMR 1H-15N TROSY spectra of the complex
binder,measurement,value
"yeast ubiquitin (natural protein, 2H,15N-labelled) not shown",binding result,binds
